Laboratory results from US20090155176A1 (Novartis, published 2009).

Biological target: T1, β2 construct alone (mock) expressed in 293 cells (UniProt P05107 23-769)
T1 construct: whole, on cells; Negative control transfectant; also called mock (β2) transfected cells
Assay: adhesion of transfected 293 cells to plate-bound ICAM-1-Ig

T1 sequence (P05107 23-769): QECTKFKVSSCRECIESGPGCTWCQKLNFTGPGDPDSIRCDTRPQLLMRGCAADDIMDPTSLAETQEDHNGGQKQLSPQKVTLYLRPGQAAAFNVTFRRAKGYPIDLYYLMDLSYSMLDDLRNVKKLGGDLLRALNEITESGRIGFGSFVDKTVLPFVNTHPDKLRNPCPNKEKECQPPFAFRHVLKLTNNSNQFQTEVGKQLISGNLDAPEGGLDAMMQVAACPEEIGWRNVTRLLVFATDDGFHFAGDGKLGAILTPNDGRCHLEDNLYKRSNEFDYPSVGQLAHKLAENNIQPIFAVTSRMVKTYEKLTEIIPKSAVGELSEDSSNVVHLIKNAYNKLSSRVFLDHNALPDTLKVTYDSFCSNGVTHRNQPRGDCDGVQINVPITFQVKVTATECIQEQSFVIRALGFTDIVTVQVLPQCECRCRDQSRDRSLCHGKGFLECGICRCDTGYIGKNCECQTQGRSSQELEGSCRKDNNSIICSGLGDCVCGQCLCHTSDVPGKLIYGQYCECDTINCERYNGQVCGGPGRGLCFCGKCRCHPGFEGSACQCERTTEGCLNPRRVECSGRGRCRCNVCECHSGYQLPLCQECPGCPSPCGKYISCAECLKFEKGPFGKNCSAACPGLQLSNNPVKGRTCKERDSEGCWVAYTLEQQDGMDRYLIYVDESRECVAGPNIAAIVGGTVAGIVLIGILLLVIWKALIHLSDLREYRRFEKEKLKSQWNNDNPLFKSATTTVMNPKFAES

binding result: no binding
B1: ICAM-1-Ig (Fc fusion, UniProt P05362 28-480, looked up)
chain: QTSVSPSKVILPRGGSVLVTCSTSCDQPKLLGIETPLPKKELLLPGNNRKVYELSNVQEDSQPMCYSNCPDGQSTAKTFLTVYWTPERVELAPLPSWQPVGKNLTLRCQVEGGAPRANLTVVLLRGEKELKREPAVGEPAEVTTTVLVRRDHHGANFSCRTELDLRPQGLELFENTSAPYQLQTFVLPATPPQLVSPRVLEVDTQGTVVCSLDGLFPVSEAQVHLALGDQRLNPTVTYGNDSFSAKASVSVTAEDEGTQRLTCAVILGNQSQETLQTVTIYSFPAPNVILTKPEVSEGTEVTVKCEAHPRAKVTLNGVPAQPLGPRAQLLLKATPEDNGRSFSCSATLEVAGQLIHKNQTRELRVLYGPRLDERDCPGNWTWPENSQQTPMCQAWGNPLPELKCLKDGTFPLPIGESVTVTRDLEGTYLCRARSTQGEVTRKVTVNVLSPRYE
notes: not shown: Ig portion
